Read-outs that look alike come from different tables or passages of the source.
B3: mouse PDGF-BB (ligand, UniProt P31240 82-190, looked up)
chain: SLGSLAAAEPAVIAECKTRTEVFQISRNLIDRTNANFLVWPPCVEVQRCSGCCNNRNVQCRASQVQMRPVQVRKIEIVRKKPIFKKATVTLEDHLACKCETIVTPRPVT
B4: Sino Biologics cynomolgus PDGF-BB Fc tag (Fc fusion, cynomolgus monkey, not shown: a dimerising Fc or GST)
chain: SLGSLTVAEPAMIAECKTRTEVFEISRRLIDRTNANFLVWPPCVEVQRCSGCCNNRNVQCRPTQVQLRPVQVRKIEIVRKKPIFKKATVTLEDHLACKCETVAAARPVT
B5: cynomolgus monkey (Macaca fascicularis) PDGF-BB (ligand)
chain: SLGSLTVAEPAMIAECKTRTEVFEISRRLIDRTNANFLVWPPCVEVQRCSGCCNNRNVQCRPTQVQLRPVQVRKIEIVRKKPIFKKATVTLEDHLACKCETVAAARPVT

How the values were obtained:
[1] = target: T1, human PDGF-AB (human, UniProt P04085 87-211); experiment: cell-based or functional assay
[2] = target: B5; experiment: cell-based or functional assay
[3] = target: B3; experiment: SPR, 37 C (listed in PK study table)
[4] = target: B5; experiment: SPR (Bia-core), 37 C as headed
[5] = target: B3; experiment: SPR (Bia-core), 37 C as headed
[6] = target: T2, rat PDGF-BB (rat, UniProt Q05028 74-182); experiment: SPR (Biacore T200 or MASS-2), mAb captured by anti-human Fc, 25 C
T2 construct: also called rPDGF-BB
Method: (§1) All binding studies were performed in 10 mM HEPES, 300 mM NaCl, and 0.05% v/v Surfactant Tween-20, pH 7.4 (HBS-P) running buffer at 25° C.
(§2) The association rate (kₐ) and dissociation rate (kd) were determined by fitting the real-time binding sensorgrams to a 1:1 binding model with mass transport limitation using Scrubber 2.0c curve-fitting software. Binding dissociation equilibrium constant (KD) and dissociative half-life (t½) were calculated from the kinetic rates as: […]

[7] = target: B5; experiment: as above
Method: as §1, §2

[8] = target: T1, human PDGF-AB; experiment: cell-based or functional assay; remark: listed apart in the source
[9] = target: B5; experiment: SPR (Bia-core), 37 C as headed; 37 C as headed
[10] = target: T1, human PDGF-AB; experiment: cell-based or functional assay; remark: listed apart in the source
[11] = target: B3; experiment: SPR, captured mAb, 37 C
Method: (§3) The equilibrium dissociation constants (KD values) for human and mouse PDGF-B binding to purified anti-PDGF-B monoclonal antibodies of this disclosure were determined using a real-time surface plasmon resonance (SPR) biosensor instrument, MASS-1. All binding studies were performed in 10 mM HEPES, 300 mM NaCl, 3 mM EDTA, 1 μg/mL Heparin, and 0.05% v/v Surfactant Tween-20, pH 7.4 (HBS-T) running buffer at 25° C. and 37° C. […] The HCA sensor surface was first derivatized by amine coupling the monoclonal mouse anti-human Fc antibody (GE, #BR100839) and anti-PDGF-B monoclonal antibodies were individually captured. […] Kinetic association (kₐ) and dissociation (kd) rate constants were determined by fitting the real-time binding sensorgrams to a 1:1 binding model with mass transport limitation using Scrubber 2.0c software. Binding dissociation equilibrium constant (KD) and dissociative half-life (t½) for different anti-PDGF-B monoclonal antibodies were calculated from the kinetic rate constants as: […]

[12] = target: T3, human PDGF-AB (human, UniProt P04085 87-211); experiment: blocking ELISA: 100 pM Biot-PDGF-AB on 1 ug/ml hPDGFRb-mmH
T3 construct: also called hPDGF-AB; hPDGF AB

[13] = target: B4; experiment: SPR 25C, mAb captured on anti-hFc; analyte Monkey PDGF-BB Fc homodimer-mouse Fc (IgG1) tag (Sino Biological)
Method: The sample was injected at 25 uL/minute for 3 minutes and the dissociation was monitored for 10 minutes. The kinetics parameters were evaluated by fitting the real time data using 1:1 binding model with mass transport limitation.

[14] = target: Cynomolgus monkey PDGF-BB (cynomolgus monkey (Macaca fascicularis), UniProt A0A2K5UX81 82-190); experiment: cell-based or functional assay
[15] = target: T4, mouse PDGF-BB (mouse, UniProt P31240 82-190, limits assumed); experiment: SPR MASS-1, captured mAb, 37C
T4 construct: also called mPDGF-BB; mPDGF-B
Method: as §3

[16] = target: T5, human PDGFRβ on HEK293/SRE-luc/hPDGFRβ cells (human, UniProt P09619 33-1106); experiment: cell-based or functional assay
T5 sequence (P09619 33-1106): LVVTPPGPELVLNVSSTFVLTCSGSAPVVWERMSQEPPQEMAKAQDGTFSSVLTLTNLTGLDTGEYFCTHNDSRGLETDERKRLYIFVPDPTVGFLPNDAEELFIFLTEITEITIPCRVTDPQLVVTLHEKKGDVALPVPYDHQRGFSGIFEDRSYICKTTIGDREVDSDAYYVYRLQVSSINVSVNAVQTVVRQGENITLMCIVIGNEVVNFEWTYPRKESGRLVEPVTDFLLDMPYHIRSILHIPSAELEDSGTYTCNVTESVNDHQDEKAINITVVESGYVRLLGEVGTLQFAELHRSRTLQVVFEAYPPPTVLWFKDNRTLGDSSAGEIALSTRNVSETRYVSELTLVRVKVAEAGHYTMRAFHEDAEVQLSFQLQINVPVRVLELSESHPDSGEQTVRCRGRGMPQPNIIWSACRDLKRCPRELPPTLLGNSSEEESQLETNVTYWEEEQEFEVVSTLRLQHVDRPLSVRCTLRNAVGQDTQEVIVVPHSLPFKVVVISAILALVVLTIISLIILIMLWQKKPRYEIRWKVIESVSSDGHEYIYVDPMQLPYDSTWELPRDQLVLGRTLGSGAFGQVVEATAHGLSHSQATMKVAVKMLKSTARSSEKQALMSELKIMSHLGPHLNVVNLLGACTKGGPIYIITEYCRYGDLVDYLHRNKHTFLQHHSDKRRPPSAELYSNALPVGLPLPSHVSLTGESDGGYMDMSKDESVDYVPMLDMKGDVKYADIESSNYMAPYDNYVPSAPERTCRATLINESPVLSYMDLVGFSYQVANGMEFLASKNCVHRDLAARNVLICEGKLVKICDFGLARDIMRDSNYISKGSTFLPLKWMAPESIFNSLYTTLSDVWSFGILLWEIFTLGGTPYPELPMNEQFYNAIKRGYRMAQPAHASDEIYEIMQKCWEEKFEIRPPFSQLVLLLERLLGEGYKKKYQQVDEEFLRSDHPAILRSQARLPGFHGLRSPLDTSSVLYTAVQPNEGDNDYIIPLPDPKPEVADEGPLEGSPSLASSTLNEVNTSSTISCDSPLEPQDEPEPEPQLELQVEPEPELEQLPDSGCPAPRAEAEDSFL

[17] = target: T5, human PDGFRβ on HEK293/SRE-luc/hPDGFRβ …; experiment: cell-based or functional assay; remark: listed apart in the source
[18] = target: mfPDGFRβ-ecto/hPDGFRb-cyto (monkey (mf); human, UniProt P09619 554-1106); experiment: cell-based or functional assay
Sequence of mfPDGFRβ-ecto/hPDGFRb-cyto (P09619 554-1106): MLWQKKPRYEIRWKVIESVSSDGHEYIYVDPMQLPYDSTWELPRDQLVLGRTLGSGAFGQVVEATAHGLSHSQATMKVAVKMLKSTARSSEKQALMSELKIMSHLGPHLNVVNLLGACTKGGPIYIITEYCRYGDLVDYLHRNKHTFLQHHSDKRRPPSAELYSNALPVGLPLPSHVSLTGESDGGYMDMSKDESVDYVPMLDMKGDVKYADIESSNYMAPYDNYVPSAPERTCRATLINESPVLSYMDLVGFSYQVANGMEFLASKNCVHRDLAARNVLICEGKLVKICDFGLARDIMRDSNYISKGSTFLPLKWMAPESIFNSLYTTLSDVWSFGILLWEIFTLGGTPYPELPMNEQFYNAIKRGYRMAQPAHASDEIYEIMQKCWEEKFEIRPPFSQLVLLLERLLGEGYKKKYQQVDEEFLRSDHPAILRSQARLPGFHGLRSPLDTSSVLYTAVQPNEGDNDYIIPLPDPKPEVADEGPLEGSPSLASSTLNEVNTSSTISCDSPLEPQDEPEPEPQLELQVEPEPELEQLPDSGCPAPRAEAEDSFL

[19] = target: B5; experiment: SPR (Bia-core), 37 C as headed; 37 C as headed; remark: listed apart in the source
[20] = target: B3; experiment: SPR, captured mAb, 25 C
Method: as §3

[21] = target: B5; experiment: cell-based or functional assay; remark: listed apart in the source
[22] = target: B3; experiment: cell-based or functional assay
[23] = target: B5; experiment: SPR (Bia-core), 37 C as headed; remark: listed apart in the source
[24] = target: B3; experiment: SPR (Bia-core), 37 C as headed; remark: listed apart in the source

B1: H4H13132P (antibody, human IgG4 S228P, kappa, V domains shown)
VH: QVQLVQSGAEVKKPGSSVKVSCKASGGTFSSYAISWVRQAPGQGLEWMGGIIPIFGTANYAQKFQGRVTITTDESTSTAYMELSSLRSEDTAVYYCAREGYGDYYFGMDVWGQGTTVTVSS
VL: not shown
notes: also called REGN15171; anti-PDGF-B antibody 2
A647 Intensity, internalization in PASMC, pre-blocking Ab: NA [1]: 772000
IC50 (head printed IC51), SRE-luciferase, 500 pM mfPDGFBB [2]: 8.9e-09 M
Kd [3]: 0.0867 nM
t1/2 [4]: 277 min
Kd [5]: 0.0867 nM
Kd [6]: 0.103 nM
t½ [6]: 41 min
Kd [7]: 0.00967 nM
t½ [7]: 277 min
(%) Inhibition, calcium flux in HLF cells, 1 nM ligand, Full Time Course [8]: 63%
Kd [9]: 9.67 pM
A647 Intensity, internalization in NHLF, pre-blocking Ab: NA [10]: 679000
Kd [11]: 0.0867 nM

B2: H4H13132P (antibody, human IgG4 S228P, kappa, V domains shown)
VH: QVQLVQSGAEVKKPGSSVKVSCKASGGTFSSYAISWVRQAPGQGLEWMGGIIPIFGTANYAQKFQGRVTITTDESTSTAYMELSSLRSEDTAVYYCAREGYGDYYFGMDVWGQGTTVTVSS
VL: not shown
notes: also called REGN15171
IC50 [12]: 14 nM
Kd [13]: 0.0256 nM
t½ [13]: 1100 min
IC50, luciferase in HEK293/SRE-Luc/mfPDGFRβ-ecto/hPDGFRb-cyto cells [14]: 781 pM
Kd [15]: 0.0867 nM

B3
EC50 of ligand, SRE-luciferase in HEK293/SRE-luc/hPDGFRβ cells [16]: 930 pM
EC50 of ligand, SRE-luciferase in HEK293/SRE-luc/hPDGFRβ cells [17]: 930 pM

B4
EC50, luciferase in HEK293/SRE-Luc/mfPDGFRβ-ecto/hPDGFRb-cyto cells [18]: 167 pM

B5
EC50 of ligand, SRE-luciferase in HEK293/SRE-luc/hPDGFRβ cells [16]: 64 pM
EC50 of ligand, SRE-luciferase in HEK293/SRE-luc/hPDGFRβ cells [17]: 64 pM

B6: H4H13145P (antibody, human IgG4 S228P, kappa, V domains shown)
VH: QVQLVQSGTEVKKPGASVKVSCKASGYTYGAYAISWVRQAPGQGLEWMGWISAYNGNTNYAQKFQDRVTMTTDTSTNTAYMELRGLKSDDTAVYFCARAWNSFDYWGQGTLVTVSS
VL: not shown
notes: also called REGN13335; anti-PDGF-B antibody 1
A647 Intensity, internalization in PASMC, pre-blocking Ab: NA [1]: 2.4e+07
Kd [19]: 0.0161 nM
Kd [20]: ≤ 2.3 pM
Kd [3]: 0.000954 nM
IC50 (head printed IC51), SRE-luciferase, 500 pM mfPDGFBB [21]: 3.2e-10 M
IC50, SRE-luciferase, 600 pM mPDGFBB [22]: 4.5e-10 M
t1/2 [23]: 770 min
Kd [24]: 0.954 pM
Kd [6]: 0.125 nM
t½ [6]: 40.9 min
Kd [7]: 0.0161 nM
t½ [7]: 770 min
A647 Intensity, internalization in NHLF, pre-blocking Ab: NA [10]: 1.9e+07
Kd [11]: 0.000954 nM

B7: H4H13145P (antibody, human IgG4 S228P, kappa, V domains shown)
VH: QVQLVQSGTEVKKPGASVKVSCKASGYTYGAYAISWVRQAPGQGLEWMGWISAYNGNTNYAQKFQDRVTMTTDTSTNTAYMELRGLKSDDTAVYFCARAWNSFDYWGQGTLVTVSS
VL: not shown
notes: also called REGN13335
Kd [13]: 0.0268 nM
t½ [13]: 1070 min
Kd [15]: 0.000954 nM

— patent publication US20220242943A1 (Regeneron, published 2022)
